Reference: patent US20090304746A1
Like-named read-outs stand apart in the source and are kept apart here.

Tests used:
HLA-A*1101 (human) [1] = target: HLA-A*1101 (human)
HLA-A*1101 (human) [2] = target: HLA-A*1101 (human); remark: listed apart in the source
[3] = target: T1, HLA-DR4w15 (DRB1*0405) (human); assay: purified HLA-DR, inhibition of 125I standard peptide, gel filtration
T1 chain 1: not shown
T1 chain 2: not shown

[4] = target: T2, HLA-DR4w4 (DRB1*0401) (human); assay: as above
T2 chain 1: not shown
T2 chain 2: not shown

[5] = target: T3, HLA-DR1 (DRB1*0101) (human); assay: as above
T3 chain 1: not shown
T3 chain 2: not shown

[6] = target: T4, HLA-DR5w11 (DRB1*1101) (human); assay: as above
T4 chain 1: not shown
T4 chain 2: not shown

[7] = target: T5, HLA-DR6w19 (DRB1*1302) (human); assay: as above
T5 chain 1: not shown
T5 chain 2: not shown

[8] = target: T6, HLA-DR7 (DRB1*0701) (human); assay: as above
T6 chain 1: not shown
T6 chain 2: not shown

[9] = target: T7, HLA-DR9 (DRB1*0901) (human); assay: as above
T7 chain 1: not shown
T7 chain 2: not shown

[10] = target: T8, HLA-DR8w2 (DRB1*0802) (human); assay: as above
T8 chain 1: not shown
T8 chain 2: not shown

[11] = target: T6, HLA-DR7 (DRB1*0701) (human)
HLA-A*0301 (human) [12] = target: HLA-A*0301 (human)
HLA-A*1101 (human) [13] = target: HLA-A*1101 (human); remark: listed apart in the source
HLA-A*0301 (human) [14] = assay: competition with 125I-labelled standard peptide on purified HLA, gel filtration
[15] = remark: other sources report otherwise

**Q.** Which binding affinity ratio (IC50 of standard peptide / IC50 of test peptide) (HLA-A*1101 (human) [1]) does the source give for TGLTHIDAH (modifications not checked) [… (HCV polyprotein position 1568, 9-mer)] here?
**A.** The binding affinity ratio (IC50 of standard peptide / IC50 of test peptide) was 0.0001.

**Q.** TSERSQPRGR (modifications not checked) [… (HCV polyprotein position 52, 10-mer)] was tested. Which binding affinity ratio (IC50 of standard peptide / IC50 of test peptide) (HLA-A*1101 (human) [1]) did it give?
**A.** The binding affinity ratio (IC50 of standard peptide / IC50 of test peptide) was 0.0001.

**Q.** TSMLTDPSH (modifications not checked) [… (HCV polyprotein position 2177, 9-mer)] was tested. Which binding affinity ratio (IC50 of standard peptide / IC50 of test peptide) (HLA-A*1101 (human) [1]) did it give?
**A.** The binding affinity ratio (IC50 of standard peptide / IC50 of test peptide) was 0.0001.

**Q.** VAYQATVCAR (modifications not checked) [… (HCV polyprotein position 1592, 10-mer)] was tested. Which binding affinity ratio (IC50 of standard peptide / IC50 of test peptide) (HLA-A*1101 (human) [1]) did it give?
**A.** Its binding affinity ratio (IC50 of standard peptide / IC50 of test peptide) is 0.0038.

**Q.** WLLSPRGSR (modifications not checked) [… (HCV polyprotein position 96, 9-mer, A11 motif peptide)] was tested. Which binding affinity ratio (IC50 of standard peptide / IC50 of test peptide) (HLA-A*1101 (human) [2]) did it give?
**A.** The binding affinity ratio (IC50 of standard peptide / IC50 of test peptide) was 0.0005.

**Q.** For YVPESDAAAR (modifications not checked) [… (HCV polyprotein position 1939, 10-mer, A11 motif peptide)], which binding affinity ratio (IC50 of standard peptide / IC50 of test peptide) (HLA-A*1101 (human) [2]) is on record?
**A.** Its binding affinity ratio (IC50 of standard peptide / IC50 of test peptide) is 0.0001.

**Q.** How did the relative binding (IC50 of standard peptide / IC50 of test peptide) [3, 15] turn out when DVVVVATDALMTGYT (modifications not checked) was run?
**A.** The relative binding (IC50 of standard peptide / IC50 of test peptide) was 0.0072.

**Q.** What about the relative binding (IC50 of standard peptide / IC50 of test peptide) [4, 15] of the same binder?
**A.** Its relative binding (IC50 of standard peptide / IC50 of test peptide) is 0.018.

**Q.** Which results are given for CGPVYCFTPSPVVVG (modifications not checked)?
**A.** relative binding (IC50 of standard peptide / IC50 of test peptide) [5]: 0.27; relative binding (IC50 of standard peptide / IC50 of test peptide) [3]: 0.4; relative binding (IC50 of standard peptide / IC50 of test peptide) [4]: 0.26

**Q.** For VYCFTPSPVVVGTTD (modifications not checked), which relative binding (IC50 of standard peptide / IC50 of test peptide) [6] is on record?
**A.** The relative binding (IC50 of standard peptide / IC50 of test peptide) was 0.0056.

**Q.** What about the relative binding (IC50 of standard peptide / IC50 of test peptide) [7] of the same binder?
**A.** Its relative binding (IC50 of standard peptide / IC50 of test peptide) is 0.0001.

**Q.** What about the relative binding (IC50 of standard peptide / IC50 of test peptide) [8] of the same binder?
**A.** Its relative binding (IC50 of standard peptide / IC50 of test peptide) is 0.074.

**Q.** And the relative binding (IC50 of standard peptide / IC50 of test peptide) [9]?
**A.** Its relative binding (IC50 of standard peptide / IC50 of test peptide) is 0.18.

**Q.** Which results are given for LELITSCSSNVSVAH (modifications not checked)?
**A.** relative binding (IC50 of standard peptide / IC50 of test peptide) [6]: 0.0008; relative binding (IC50 of standard peptide / IC50 of test peptide) [7]: 0.051; relative binding (IC50 of standard peptide / IC50 of test peptide) [10]: 0.0003; relative binding (IC50 of standard peptide / IC50 of test peptide) [9]: 0.033

**Q.** Which results are given for FTGLTHIDAHFLSQT (modifications not checked)?
**A.** relative binding (IC50 of standard peptide / IC50 of test peptide) [6]: 0.0083; relative binding (IC50 of standard peptide / IC50 of test peptide) [7]: 0.0002; relative binding (IC50 of standard peptide / IC50 of test peptide) [10]: 0.05; relative binding (IC50 of standard peptide / IC50 of test peptide) [9]: 0.0056

**Q.** With TTIMAKNEVFCVQPE (modifications not checked) [HCV NS5 2589 peptide 1283.51] as the binder, how does the binding affinity ratio (relative to standard peptide) [11, 15] read?
**A.** The binding affinity ratio (relative to standard peptide) was 0.0025.

**Q.** Which binding affinity ratio (relative to standard peptide) [11] does the source give for RQEMGGNITRVESEN (modifications not checked) [HCV NS5 2243 peptide 1283.49] here?
**A.** Its binding affinity ratio (relative to standard peptide) is 0.0002.

**Q.** Which binding affinity ratio (IC50 of standard peptide / IC50 of test peptide) (HLA-A*0201 (human)) does the source give for TLHGPTPLL (modifications not checked) [HCV peptide … (HCV polyprotein position 1622)] here?
**A.** Its binding affinity ratio (IC50 of standard peptide / IC50 of test peptide) is 0.007.

**Q.** TLPALSTGL (modifications not checked) [HCV peptide … (HCV polyprotein position 686)] was tested. Which binding affinity ratio (IC50 of standard peptide / IC50 of test peptide) (HLA-A*0201 (human)) did it give?
**A.** Its binding affinity ratio (IC50 of standard peptide / IC50 of test peptide) is 0.0003.

**Q.** For VAYQATVCA (modifications not checked) [HCV peptide … (HCV polyprotein position 1592)], which binding affinity ratio (IC50 of standard peptide / IC50 of test peptide) (HLA-A*0201 (human)) is on record?
**A.** The binding affinity ratio (IC50 of standard peptide / IC50 of test peptide) was 0.0005.

**Q.** How did the binding affinity ratio (IC50 of standard peptide / IC50 of test peptide) (HLA-A*0201 (human)) turn out when VAYYRGLDV (modifications not checked) [HCV peptide … (HCV polyprotein position 1420)] was run?
**A.** Its binding affinity ratio (IC50 of standard peptide / IC50 of test peptide) is 0.0001.

**Q.** How did the binding affinity ratio (IC50 of standard peptide / IC50 of test peptide) (HLA-A*0301 (human) [12]) turn out when IVGGVYLLPR (modifications not checked) [HCV peptide … (polyprotein position 30)] was run?
**A.** The binding affinity ratio (IC50 of standard peptide / IC50 of test peptide) was 0.0008.

**Q.** And the binding affinity ratio (IC50 of standard peptide / IC50 of test peptide) (HLA-A*1101 (human) [13])?
**A.** Its binding affinity ratio (IC50 of standard peptide / IC50 of test peptide) is 0.0056.

**Q.** And the binding affinity ratio (IC50 of standard peptide / IC50 of test peptide) (HLA-A*0301 (human) [14])?
**A.** The binding affinity ratio (IC50 of standard peptide / IC50 of test peptide) was 0.0008.
